Target: V1N, hybrid peptide of the collagen domain (POG)8 and the cell penetrating peptide domain (RRG)2, without the FITC reporter
Test: circular dichroism; V1N/siRNA complex in Milli-Q water, 90 uM V1N and 5 uM siRNA, equilibrated 30 min at 25 °C or 37 °C; positive peak at 224 nm

**Q.** “V1N, hybrid peptide of the collagen domain (POG)8 and the cell penetrating peptide domain (RRG)2, without the FITC reporter” was tested. Which stoichiometry N did it give?
**A.** 3

Source: article PMC6856157
